Experimental data taken from patent publication US20260265321A1, “PEPTIDE AND POLYPEPTIDE INHIBITING THE NF-KB SIGNALING PATHWAY” (Centre National de la Recherche Scientifique, priority 2023, published 2026).
Changes are numbered by the printed parent chain.

T1: IKKα(10-667) S176E/S180E homodimer, 6×His tag removed (human, UniProt O15111 10-667)
T1 construct: also called purified IKKα
T1 sequence (looked up): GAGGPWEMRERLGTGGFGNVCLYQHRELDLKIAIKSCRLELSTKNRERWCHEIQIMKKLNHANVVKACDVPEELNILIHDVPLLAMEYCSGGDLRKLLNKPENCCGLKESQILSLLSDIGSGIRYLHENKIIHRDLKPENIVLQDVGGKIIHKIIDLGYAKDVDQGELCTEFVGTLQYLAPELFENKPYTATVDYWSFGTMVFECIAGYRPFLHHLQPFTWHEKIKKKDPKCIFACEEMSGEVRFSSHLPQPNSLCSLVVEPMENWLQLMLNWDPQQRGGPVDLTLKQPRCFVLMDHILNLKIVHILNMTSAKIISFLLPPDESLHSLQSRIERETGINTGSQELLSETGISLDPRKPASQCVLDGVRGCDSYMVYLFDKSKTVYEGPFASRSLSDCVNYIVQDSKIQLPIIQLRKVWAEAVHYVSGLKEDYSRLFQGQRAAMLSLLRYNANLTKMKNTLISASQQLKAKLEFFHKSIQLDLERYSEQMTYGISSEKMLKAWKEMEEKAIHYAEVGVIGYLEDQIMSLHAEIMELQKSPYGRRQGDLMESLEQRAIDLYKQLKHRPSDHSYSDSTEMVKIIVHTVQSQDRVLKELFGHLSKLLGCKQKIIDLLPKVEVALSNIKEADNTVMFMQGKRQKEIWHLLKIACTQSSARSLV

T2: G1-IKKβ L654D/W655D (GPCA construct) (human, UniProt O14920 1-756)
T2 construct: not shown: Gluc1 fragment of Gaussia princeps luciferase and flexible 20 amino acid linker, N-terminal
T2 sequence (looked up): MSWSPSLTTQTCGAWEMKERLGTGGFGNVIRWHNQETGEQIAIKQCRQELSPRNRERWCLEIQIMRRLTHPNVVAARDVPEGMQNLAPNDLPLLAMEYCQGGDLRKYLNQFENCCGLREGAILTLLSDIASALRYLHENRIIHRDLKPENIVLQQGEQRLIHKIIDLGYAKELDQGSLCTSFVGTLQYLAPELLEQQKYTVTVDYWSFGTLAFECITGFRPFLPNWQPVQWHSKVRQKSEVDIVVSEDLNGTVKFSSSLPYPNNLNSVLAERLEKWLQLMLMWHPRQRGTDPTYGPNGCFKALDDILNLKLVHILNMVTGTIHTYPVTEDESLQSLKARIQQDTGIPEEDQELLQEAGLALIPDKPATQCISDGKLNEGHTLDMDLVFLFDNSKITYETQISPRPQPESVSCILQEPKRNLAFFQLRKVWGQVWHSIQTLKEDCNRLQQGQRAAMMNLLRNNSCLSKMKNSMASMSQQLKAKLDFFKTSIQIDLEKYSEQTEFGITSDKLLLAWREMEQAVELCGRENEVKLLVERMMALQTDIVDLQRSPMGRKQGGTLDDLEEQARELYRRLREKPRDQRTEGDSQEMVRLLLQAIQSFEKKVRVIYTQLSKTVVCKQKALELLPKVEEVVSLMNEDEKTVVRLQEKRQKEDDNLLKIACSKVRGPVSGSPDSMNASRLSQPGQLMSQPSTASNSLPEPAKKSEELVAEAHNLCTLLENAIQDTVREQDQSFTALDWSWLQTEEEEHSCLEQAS

T3: G1-IKKα, full-length wt IKKα fused to the Gluc1 fragment (human, UniProt O15111 1-745)
T3 construct: Expressed in HEK293T cells for GPCA; full-length; also called Gluc1-IKKα; not shown: Gluc1 fragment of Gaussia princeps luciferase and flexible 20 amino acid linker, N-terminal
T3 sequence (looked up): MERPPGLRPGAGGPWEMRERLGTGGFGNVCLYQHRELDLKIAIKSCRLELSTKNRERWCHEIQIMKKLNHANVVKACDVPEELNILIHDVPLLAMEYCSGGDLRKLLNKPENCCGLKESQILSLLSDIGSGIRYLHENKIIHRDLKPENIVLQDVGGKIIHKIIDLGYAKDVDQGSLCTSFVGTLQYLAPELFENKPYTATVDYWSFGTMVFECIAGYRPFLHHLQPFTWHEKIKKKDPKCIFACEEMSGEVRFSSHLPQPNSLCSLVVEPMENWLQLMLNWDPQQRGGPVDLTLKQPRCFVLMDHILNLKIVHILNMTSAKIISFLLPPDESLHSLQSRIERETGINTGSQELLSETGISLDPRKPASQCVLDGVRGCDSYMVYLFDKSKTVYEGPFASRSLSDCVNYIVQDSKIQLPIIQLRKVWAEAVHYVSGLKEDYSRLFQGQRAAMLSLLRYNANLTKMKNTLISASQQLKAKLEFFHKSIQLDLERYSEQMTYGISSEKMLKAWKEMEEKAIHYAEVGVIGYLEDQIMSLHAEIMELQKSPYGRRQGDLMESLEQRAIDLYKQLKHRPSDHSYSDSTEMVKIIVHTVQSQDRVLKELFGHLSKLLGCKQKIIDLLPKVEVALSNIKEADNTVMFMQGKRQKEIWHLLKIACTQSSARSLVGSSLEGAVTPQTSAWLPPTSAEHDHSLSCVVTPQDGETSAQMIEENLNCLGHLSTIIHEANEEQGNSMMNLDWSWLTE

T4: G1-IKKβ, full-length wt IKKβ fused to the Gluc1 fragment (human, UniProt O14920 1-756)
T4 construct: Expressed in HEK293T cells for GPCA; full-length; also called Gluc1-IKKβ; not shown: Gluc1 fragment of Gaussia princeps luciferase and flexible 20 amino acid linker, N-terminal
T4 sequence (looked up): T2 sequence (looked up) with D654L, D655W

B1: G2-IκBα(73-317) (other, UniProt P25963 73-317, looked up)
chain: DGDSFLHLAIIHEEKALTMEVIRQVKGDLAFLNFQNNLQQTPLHLAVITNQPEIAEALLGAGCDPELRDFRGNTPLHLACEQGCLASVGVLTQSCTTPHLHSILKATNYNGHTCLHLASIHGYLGIVELLVSLGADVNAQEPCNGRTALHLAVDLQNPDLVSLLLKCGADVNRVTYQGYSPYQLTWGRPSTRIQQQLGQLTLENLQMLPESEDEESYDTESEFTEFTEDELPYDDCVFGGQRLTL
notes: range 73-317; Expressed in HEK293T cells for GPCA; also called N-terminal truncated IκBα (73-317) construct; not shown: Gluc2 fragment of Gaussia princeps luciferase and flexible 20 amino acid linker, N-terminal

Experiments:
[1] = molecular target: T1, IKKα(10-667) S176E/S180E homodimer, …; test: ITC, given as a lower bound
[2] = molecular target: T1, IKKα(10-667) S176E/S180E homodimer, …; test: ITC, 25 °C, 1:1 model; values called estimates
Experimental: (§1) All experiments were performed in ITC buffer (20 mM HEPES pH 8.0, 150 mM NaCl, 1 mM TCEP) unless otherwise stated. […] Just before the ITC experiments, IKKα or IKKβ samples were concentrated, incubated at room temperature for 30 minutes and centrifuged at 11000 g to remove eventual precipitate. The final concentrations of IKKα and IKKβ in the sample cell varied between 22 and 50 μM depending on the measurement. […] The concentration of peptides in the syringe varied between 220 and 975 μM depending on the measurement.
(§2) All ITC experiments were performed at 25° C. The data were fitted to a 1:1 binding model. […] All data were processed using NITPIC software and global fitting of two datasets was carried out using SEDPHAD.

[3] = molecular target: T1, IKKα(10-667) S176E/S180E homodimer, …; test: ITC, 25 °C, 1:1 model; values called estimates; table value; footnote calls it an estimate
Experimental: as §1, §2

[4] = molecular target: T2, G1-IKKβ L654D/W655D (GPCA construct); test: GPCA in HEK293T cells
Experimental: (§3) HEK293T cells were transfected using the reverse transfection method. Transfection mixes containing 100 ng of pSPICA-N2 and 100 ng of pSPICA-N1 plasmids expressing test proteins plus JetPEI® (Polyplus transfection) were dispensed in white 96-well plates. HEK293T cells were then seeded on the DNA mixes at a concentration of 4.2×10^4 cells per well. 48 hours after transfection, cells were washed with 50 μl of PBS and lysed with 40 μl of Renilla lysis buffer (Promega, E2820) for 30 minutes with agitation. Gaussia princeps luciferase enzymatic activity was measured using a Berthold Centro LB960 luminometer by injecting 50 μl per well of luciferase substrate reagent (Promega, E2820) and counting luminescence for 10 seconds. Results are expressed as a fold change normalized over the sum of controls, specified herein as normalized luminescence ratio (NLR) 29. For a given protein pair A/B, NLR=(Gluc1-A+Gluc2-B)/[(Gluc1-A+Gluc2)+(Gluc1+Gluc2-B)]. All interactions were measured in three independent experiments, with each experiment being carried out in triplicate. The expression levels of Gluc1- and Gluc2-fused proteins were checked by Western blotting. 24 hours post-transfection, HEK293T cells were collected, lysed by incubation on ice and centrifuged. Aliquots of cleared supernatants were loaded onto an 10% SDS-PAGE gel.

[5] = molecular target: T3, G1-IKKα, full-length wt IKKα fused to …; test: GPCA (Gaussia princeps protein complementation assay) in HEK293T cells, NLR, mean ± SD of triplicates
Experimental: as §3

[6] = molecular target: T4, G1-IKKβ, full-length wt IKKβ fused to …; test: as above
Experimental: as §3

Kd [1] [µM]	TΔS [2] [kJ/mol]	ΔG [2] [kJ/mol]	ΔH [2] [kJ/mol]	Kd [3] [µM]	binding result [4]	binding result [5]	binding result [6]	Binder
> 90	-5.02	-23	-28	~90				LSSANSLYDDIECFLMELEQPA [synthetic IRF7 pep]
					no binding	binds	binds	B1
